Reference: patent US6710165B2, “IgE-dependent histamine-releasing factor-binding peptides” (priority 2000, dated 2004)

Assays:
[1] = tested on: (Na,K)ATPase large cytoplasmic loop; assay: Coimmunoprecipitation in COS-7 cells; type: binding; details: HA-tagged HRF
Method: Subsequently, to examine such interaction in mammalian cells, COS-7 cells were grown in DMEM^+ culture (Dulbeccos modified Eagles medium containing 10% fetal bovine serum, 100 units/ml penicillin and 100 units/ml streptomycin). The cells were transfected with N-terminal HA-tagged HRF constructs inserted to pCDNAneo vector (Invitrogen). COS-7 cell extracts were immunoprecipitated according to the method of Florkiewicz, et al. (1998). To detect the interactive protein, rabbit polyclonal anti-(Na,K)ATPase antibodies were added thereto.

COS-7 cells = assay: HRF's capability of transiting cell membrane (confocal microscopy, Western blotting); type: cell-based; details: recombinant rat HRF added to COS-7 cell culture solution
Method: The full-length rat HRF sequence (Chitpatima, et al., 1988) amplified by PCR (polymerase chain reaction) was cloned in pRSET-A vector and then, overexpressed in E. coli. The expressed recombinant protein was purified by His-bound Ni column (Novagen) and then, added to COS-7 cell culture solution. COS-7 cells were immobilized with 3.7% formaldehyde containing Ca^2+ and Mg^2+ for 10 minutes. Then, the cells were stained with anti-His monoclonal antibodies (1:100) containing 0.1% saponin at room temperature for 1 hour. Subsequently, they were incubated with anti-mouse-FITC (1:100) secondary antibodies for 30 minutes. Anti-bleaching agent solution was added thereto and then, observation was made under laser confocal microscope (Leica TCSNT system).
Further, COS-7 cells cultivated in 100 mm culture plate were treated according to the above method. Then, the cells were divided into cytoplasmic fraction and cell membrane fraction. They were loaded onto 10% SDS-PAGE gel and then, Western blotting was carried out using anti-His monoclonal antibodies.
As shown in the figures, HRF was detected within the cells at 1 minute after its addition.

RBL-2H3 cells [2] = assay: Intracellular Na+ concentration (sodium green fluorescence); type: cell-based; details: IgE-sensitized RBL-2H3 cells, HRF 10˜20 μg/ml
Method: RBL-2H3 cells were loaded onto 24-well plate at 3.0×10^5˜1×10^6 cells/ml and cultivated at 37° for 18 hours. Hams F-12 culture (phenol red or serum-free 2 mM sodium bicarbonate and 10 mM HEPES, pH 7.3) was mixed with sodium green tetracetate dye (Molecular Probes, Eugene, Oreg.) at a final concentration of […] and the mixture was loaded onto the cells (Amorino and Fox, 1995). The cells were sensitized with 0.2 μg/ml of rat IgE (Serotec) for 45˜60 minutes and then, cultivated at room temperature for about 20˜60 minutes and washed three times with F-12 medium. Subsequently, thereto was added HRF (10˜20 μg/ml) in histamine releasing buffer and then, fluorescence was measured with microtiter reader (FL600, Bio-tek Instruments, Inc., Winooski, Vt.) at 485/530 nm for 15 minutes. The mixed solution of Na^+ and K^+ at an appropriate concentration was measured using gramicidin D (Sigma) as calibration (Amorino and Fox, 1995).

(Na,K)ATPase = assay: Inhibitory activity on (Na,K)ATPase (86Rb+ tracer, K+-uptake); type: cell-based; details: 10˜20 μg/ml HRF
Method: RBL-2H3 cells were cultivated and sensitized according to the same procedures as in Example 6 and then, washed three times with Krebs-Ringer buffer (KRP, 140 mM NaCl, 5 mM KCl, 10 mM Na2HPO4, 1 mM MgSO4, 1.4 mM CaCl2, 2.5 mM glucose, pH 7.4). Subsequently, the cells were incubated at 37° C. for 15 minutes and then, thereto was added 0.1% bovine serum albumin (BSA)-containing KRP buffer comprising 1 mM ouabain. ^86Rb^+([…], NEN) was used as a tracer and the cells were cultivated for 5˜10 minutes. 10˜20 µg/ml HRF was added thereto and K^+-uptake was measured for 5, 10 and 15 minutes, respectively.

RBL-2H3 cells [3] = assay: Histamine release by HRF (RIA); type: cell-based; details: IgE-sensitized RBL-2H3 cells, 20 μg/ml recombinant HRF
Method: The full-length rat HRF sequence amplified by PCR was cloned in pRSET-A vector and then, overexpressed in E. coli. The expressed recombinant protein was purified using His-bound Ni column (Novagen) and used for stimulation of RBL-2H3 cells. RBL-2H3 cells were grown in 24-well plate at 1×10^6 cells, sensitized with rat IgE antibody (0.2 μg/ml, Serotec) for 45˜60 minutes and treated with 20 μg/ml of the recombinant HRF protein and the inhibitors as used above, respectively. The obtained sample was prepared to acylated histamine using RIA-analysis kit (Immunotech, France) and competitively bound to ^125I-acylated histamine and monoclonal antibodies. The sample was analyzed by γ-counter.

B1: HRF: recombinant full-length rat HRF overexpressed in E. coli; protein consisting of 172 amino acids (protein)
chain: MIIYRDLISHDELFSDIYKIREIADGLCLEVEGKMVSRTEGAIDDSLIGGNASAEGPEGEGTESTVVTGVDIVMNHHLQETSFTKEAYKKYIKDYMKSLKGKLEEQKPERVKPFMTGAAEQIKHILANFNNYQFFIGENMNPDGMVALLDYREDGVTPFMIFFKDGLEMEKC
modifications: left off: small tags and cut ends
notes: recombinant full-length rat HRF overexpressed in E. coli; protein consisting of 172 amino acids
interaction with (Na,K)ATPase large cytoplasmic loop, coimmunoprecipitation [1]: interacted with (Na,K)ATPase large cytoplasmic loop
time after addition at which HRF was detected within the cells (COS-7 cells): 1 min
effect on intracellular Na+ concentration (RBL-2H3 cells [2]): increased the intracellular Na^+ concentration
decrease of (Na,K)ATPase activity ((Na,K)ATPase; K+-uptake measured for 5 minutes): 10.8%
decrease of (Na,K)ATPase activity ((Na,K)ATPase; K+-uptake measured for 10 minutes): 40.4%
decrease of (Na,K)ATPase activity ((Na,K)ATPase; K+-uptake measured for 15 minutes): 50.7%
histamine release (RBL-2H3 cells [3]): histamine was released by HRF
